Numbering of substitutions follows the chain as printed. Names may count otherwise.
T1: recombinant cynomolgus monkey PD-1 expressed with a C-terminal myc-myc-hexahistidine tag (cynomolgus monkey (Macaca fascicularis))
T1 construct: monomeric; also called MfPD-1-MMH
T1 chain: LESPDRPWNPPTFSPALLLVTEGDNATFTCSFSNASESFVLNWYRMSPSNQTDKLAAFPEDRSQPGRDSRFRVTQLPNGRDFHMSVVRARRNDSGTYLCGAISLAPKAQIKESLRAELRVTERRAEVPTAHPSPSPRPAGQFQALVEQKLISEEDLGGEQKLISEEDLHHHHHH

B1: H2aM7794N (antibody, V domains shown)
VH: QLQLQESGPDLVKPSDTLSLTCTVSDDSISSTTYYWAWIRQPPGKGLEWIGSMSYNGNNYYNPSLKSRVAISAGTSQKQFSLKLTSVTAADTAVYHCARHLGYNGNWYPFDFWGQGILVTVSS
VL: not shown
notes: Human variable regions, mouse IgG2a Fc; also called H2M7794N
B2: H1M7789N (antibody, mouse IgG1, V domains shown)
VH: EVQLLESGGGLVQPGGSLRLSCSASGFTFSSYTMNWVRQAPGKGLEWVSGISDTGGNTYYTDSVKGRFTVSRDNSKNTLSLQMNSLRAEDTAVYYCAKDQGGSYPYYFHYWGQGSLVTVSS
VL: DIQMTQSPSSLSASVGDRVTITCRASQSISSYLIWYQQKPGTAPKFLIYAASSLQSGVPSRFSGCGSGTDFTLTISSLQPEDFATYYCQQSYSTPPITFGQGTRLEIK
notes: Human variable regions, mouse IgG1 Fc
B3: H4H9019P (antibody, human IgG4, V domains shown)
VH: EVQLVESGGGVVRPGGSLRLSCAASGFTFDDYGMSWVRQVPGKGLEWVSGISWNDGKTVYAESVKGRFIISRDNAKNSLYLEMNSLRAEDTALYYCARDWQYLIERYFDYWGQGTLVTVSS
VL: not shown
notes: Fully human; H4H prefix (human IgG4 Fc)
B4: H4xH9035P (antibody, V domains shown)
VH: B3 VH with G10R, V40L, S49A, Y80H, E105D, Y110F
VL: not shown
notes: Human IgG4 Fc with 2 or more amino acid changes (H4xH); also called H4xH9035P2
B5: H2aM7788N (antibody, mouse IgG2a, V domains shown)
VH: EVQLVESGGGLVQPGGSLRLSCGASGFTFRNYDMHWVRQITGKGLEWVSAIGSAGDTYYPDSVKGRFTISRENAKNSLYLQMNSLRVGDTAVYYCTRDIHCSSTRCYGMDVWGQGTTVTVSS
VL: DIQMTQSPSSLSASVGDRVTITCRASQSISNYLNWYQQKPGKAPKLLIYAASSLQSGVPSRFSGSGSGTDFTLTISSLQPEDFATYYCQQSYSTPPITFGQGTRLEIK
notes: Human variable regions, mouse IgG2a Fc; also called H2M7788N
B6: H2aM7798N (antibody, mouse IgG2a, V domains shown)
VH: EVQLLESGGVLVQPGGSLRLSCAASGFTFSNFGMTWVRQAPGKGLEWVSGISGGGRDTYFADSVKGRFTISRDNSKNTLYLQMNSLKGEDTAVYYCVKWGNIYFDYWGQGTLVTVSS
VL: DIQMTQSPSSLSASVGDSITITCRASLSINTFLNWYQQKPGKAPNLLIYAASSLHGGVPSRFSGSGSGTDFTLTIRTLQPEDFATYYCQQSSNTPFTFGPGTVVDFR
notes: Human variable regions, mouse IgG2a Fc; also called H2M7798N
B7: H4xH9034P (antibody, V domains shown)
VH: EVQLVESGGGVVRPGGSLRLSCTASGFTFDDYGMSWVRQAPGKGLEWISGIGWTGGRSSYADSVRGRFTISRDNAKNSLYLQMNSLGAEDTALYYCARDRQWLVQWYFDYWGQGTLVTVSS
VL: not shown
notes: Human IgG4 Fc with 2 or more amino acid changes as disclosed in US20100331527 (H4xH); also called H4xH9034P2
B8: H1M7799N (antibody, mouse IgG1, V domains shown)
VH: EVQLVESGGGLVQPGGSLRLSCAASGFTVSNNYMSWVRQAPGKGLEWVSVIYSGGFTYYTDSVKGRFTISRHNSKNTLYLQMNSLRAEDTAVYYCARYYYDTSDYWTFFDYWGQGTLVTVSS
VL: EIVMTQSPATLSVSPGERATLSCRASQSVSSNLAWYQQKPGQAPRLLIYGASTRATGIPARFSGSGSGTEFTLTISSLQSGDFAVYYCQQYNNWPLTFGGGTKVEIN
notes: as for B2
B9: H1M7800N (antibody, mouse IgG1, V domains shown)
VH: B8 VH
VL: B8 VL
notes: as for B2
B10: H2aM7795N (antibody, mouse IgG2a, V domains shown)
VH: EVQVVESGGGLVEPGRSLRLSCKASGFTFDDYAMHWVRQTPGKALEWVSGINWSGNNIGYADSVKGRFTISKDDAKNSLYLQMNSLRPEDTALYYCTKDISITGTLDAFDVWGQGTMVTVSS
VL: DIQMTQSPISVSASVGDRVTITCRASQGISNWLAWYQQKPGIAPKLLIYSASSLQSGVPSRFRGSGSGTDFTLTIGSLQPEDFATYYCQQAHSFPLTFGGGTKVEIK
notes: Human variable regions, mouse IgG2a Fc; also called H2M7795N
B11: H2aM7791N (antibody, mouse IgG2a, V domains shown)
VH: QMQLQQWGAGLLKPSETLSLTCVVYGGSLNGYYWSWIRQSPGKGLEWIGEIDHSGSTNYNPSLKNRVTMSVDTSKIQFSLKLTSVTVADTAVYYCAREGLLPFDYWGQGTLVTVSS
VL: EIVLTQSPGTLSLSPGERVTLSCRASQSVYSNYLAWYQQNPGQAPRLLIYAASNRATGIPDRFSGSGSGTDFTLTISRLEPEDFAVYYCHQYATSPWTFGQGTKVEIK
notes: Human variable regions, mouse IgG2a Fc; also called H2M7791N

What follows are binders tested against T2, recombinant human PD-1 expressed with a C-terminal myc-myc-hexahistidine tag (human) (assay: SPR, mAb captured, 37C;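 also: rate constants from fitting sensorgrams to a 1:1 binding model, KD derived as kd divided by ka and half-life as ln2/(60·kd)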).
T2 construct: monomeric; also called hPD-1-MMH; human PD-1-MMH

| Kd | koff | kon | t½ | Binder |
| --- | --- | --- | --- | --- |
| 66.1 nM | 0.00792 s⁻¹ | 120000 M⁻¹ s⁻¹ | 1.5 min | B1 |
| 6.52 nM | 0.000295 s⁻¹ | 45300 M⁻¹ s⁻¹ | 39 min | B2 |
| 453 nM | – | – | 2.1 min | B3 |
| 14.3 nM | 0.00426 s⁻¹ | 298000 M⁻¹ s⁻¹ | 2.7 min | B4 |
| 51.9 nM | 0.00149 s⁻¹ | 28800 M⁻¹ s⁻¹ | 7.7 min | B5 |
| 3.79 nM | 0.000656 s⁻¹ | 173000 M⁻¹ s⁻¹ | 18 min | B6 |
| 40.2 nM | 0.0112 s⁻¹ | 279000 M⁻¹ s⁻¹ | 1 min | B7 |
| 536 nM | 0.0425 s⁻¹ | 79400 M⁻¹ s⁻¹ | 0.3 min | B8 |
| 510 nM | 0.0399 s⁻¹ | 78300 M⁻¹ s⁻¹ | 0.3 min | B9 |
| 67.8 nM | 0.00458 s⁻¹ | 67500 M⁻¹ s⁻¹ | 2.5 min | B10 |
| 53.5 nM | 0.00224 s⁻¹ | 41800 M⁻¹ s⁻¹ | 5.2 min | B11 |

Molecular target: T1, recombinant cynomolgus monkey PD-1 …
Assay: SPR, mAb captured, 37C

| Kd | koff | kon | t½ | Binder |
| --- | --- | --- | --- | --- |
| 302 nM | 0.0201 s⁻¹ | 66600 M⁻¹ s⁻¹ | 0.6 min | B1 |
| 8.5 nM | 0.000408 s⁻¹ | 47900 M⁻¹ s⁻¹ | 28 min | B2 |
| 356 nM | – | – | 1.5 min | B3 |
| 14 nM | 0.00429 s⁻¹ | 306000 M⁻¹ s⁻¹ | 2.7 min | B4 |
| 174 nM | 0.00328 s⁻¹ | 18800 M⁻¹ s⁻¹ | 3.5 min | B5 |
| 7 nM | 0.000993 s⁻¹ | 142000 M⁻¹ s⁻¹ | 12 min | B6 |
| 87.3 nM | 0.0247 s⁻¹ | 283000 M⁻¹ s⁻¹ | 0.5 min | B7 |
| 530 nM | 0.0467 s⁻¹ | 88000 M⁻¹ s⁻¹ | 0.2 min | B8 |
| 527 nM | 0.0443 s⁻¹ | 84000 M⁻¹ s⁻¹ | 0.3 min | B9 |
| 60.2 nM | 0.00389 s⁻¹ | 64700 M⁻¹ s⁻¹ | 3 min | B10 |
| 50.5 nM | 0.00191 s⁻¹ | 37900 M⁻¹ s⁻¹ | 6 min | B11 |

The binders below were run against T3, human PD-1 dimer (human PD-1-mFc or human PD-1-hFc) (human, UniProt Q15116 25-170) (assay: SPR, mAb captured, 25C;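 also: surface plasmon resonance on Biacore, PD-1 flowed over captured anti-PD-1 antibodies, rate constants from a 1:1 binding model fit, KD taken as kd/ka and t½ as ln2/(60·kd)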).
T3 construct: also called hPD-1-mFc; hPD1-hFc
T3 sequence (Q15116 25-170 C93S): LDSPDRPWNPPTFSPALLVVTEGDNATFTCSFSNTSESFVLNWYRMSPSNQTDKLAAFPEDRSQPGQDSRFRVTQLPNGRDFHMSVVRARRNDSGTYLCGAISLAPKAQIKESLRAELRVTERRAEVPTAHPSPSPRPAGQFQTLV

| Kd | koff | kon | t½ | Binder |
| --- | --- | --- | --- | --- |
| 0.593 nM | 0.000106 s⁻¹ | 179000 M⁻¹ s⁻¹ | 109 min | B1 |
| 1.1 nM | 4.31e-05 s⁻¹ | 39100 M⁻¹ s⁻¹ | 268 min | B2 |
| 1.97 nM | – | – | 134 min | B3 |
| 0.513 nM | 0.000103 s⁻¹ | 201000 M⁻¹ s⁻¹ | 112 min | B4 |
| 0.315 nM | 2.82e-05 s⁻¹ | 89400 M⁻¹ s⁻¹ | 410 min | B5 |
| 0.0655 nM | 2.29e-05 s⁻¹ | 350000 M⁻¹ s⁻¹ | 505 min | B6 |
| 0.701 nM | 0.000151 s⁻¹ | 215000 M⁻¹ s⁻¹ | 77 min | B7 |
| 0.36 nM | 8.55e-05 s⁻¹ | 238000 M⁻¹ s⁻¹ | 135 min | B8 |
| 0.509 nM | 7.72e-05 s⁻¹ | 152000 M⁻¹ s⁻¹ | 150 min | B9 |
| 0.227 nM | 3.14e-05 s⁻¹ | 138000 M⁻¹ s⁻¹ | 368 min | B10 |
| 2.49 nM | 0.000101 s⁻¹ | 40500 M⁻¹ s⁻¹ | 114 min | B11 |

The binders below were run against T3, human PD-1 dimer (human PD-1-mFc or …) (assay: SPR, mAb captured, 37C).

| Kd | koff | kon | t½ | Binder |
| --- | --- | --- | --- | --- |
| 0.452 nM | 0.000211 s⁻¹ | 468000 M⁻¹ s⁻¹ | 55 min | B1 |
| ≤ 0.0917 nM | ≤ 1e-05 s⁻¹ | 109000 M⁻¹ s⁻¹ | ≥ 1160 min | B2 |
| 2.71 nM | – | – | 59 min | B3 |
| 1.75 nM | 0.000554 s⁻¹ | 316000 M⁻¹ s⁻¹ | 21 min | B4 |
| 0.163 nM | 2.13e-05 s⁻¹ | 131000 M⁻¹ s⁻¹ | 542 min | B5 |
| 0.028 nM | 1.4e-05 s⁻¹ | 490000 M⁻¹ s⁻¹ | 825 min | B6 |
| 2.09 nM | 0.00063 s⁻¹ | 302000 M⁻¹ s⁻¹ | 18 min | B7 |
| 0.411 nM | 0.000181 s⁻¹ | 441000 M⁻¹ s⁻¹ | 64 min | B8 |
| 0.45 nM | 0.000181 s⁻¹ | 400000 M⁻¹ s⁻¹ | 64 min | B9 |
| 0.371 nM | 6.13e-05 s⁻¹ | 165000 M⁻¹ s⁻¹ | 188 min | B10 |
| 3.59 nM | 0.000179 s⁻¹ | 49800 M⁻¹ s⁻¹ | 65 min | B11 |

Molecular target: T1, recombinant cynomolgus monkey PD-1 …
Assay: SPR, mAb captured, 25C;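 also: rates from fitting Biacore data for PD-1 binding to anti-PD-1 antibodies with a 1:1 model, KD computed as koff/kon and t½ as ln2/(60·koff)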

| Kd | koff | kon | t½ | Binder |
| --- | --- | --- | --- | --- |
| 166 nM | 0.00599 s⁻¹ | 36000 M⁻¹ s⁻¹ | 1.9 min | B1 |
| 7.89 nM | 0.000123 s⁻¹ | 15500 M⁻¹ s⁻¹ | 94 min | B2 |
| 42.9 nM | – | – | – | B3 |
| 4.64 nM | 0.000434 s⁻¹ | 93600 M⁻¹ s⁻¹ | 27 min | B4 |
| 76.6 nM | 0.000662 s⁻¹ | 8630 M⁻¹ s⁻¹ | 17 min | B5 |
| 4.5 nM | 0.000393 s⁻¹ | 87200 M⁻¹ s⁻¹ | 29 min | B6 |
| 28 nM | 0.00269 s⁻¹ | 96100 M⁻¹ s⁻¹ | 4.3 min | B7 |
| 224 nM | 0.013 s⁻¹ | 57800 M⁻¹ s⁻¹ | 0.9 min | B8 |
| 176 nM | 0.0104 s⁻¹ | 58900 M⁻¹ s⁻¹ | 1.1 min | B9 |
| 20.1 nM | 0.000889 s⁻¹ | 44400 M⁻¹ s⁻¹ | 13 min | B10 |
| 34.4 nM | 0.000553 s⁻¹ | 16100 M⁻¹ s⁻¹ | 21 min | B11 |
